Laboratory results taken from patent US20230235304.
Residue numbers refer to the chain shown, from its start.

Experiments:
[1] = tested on: T1, CRISPR nuclease variant S78K,E198R,R354G S78K,E198R,R354G (synthetic construct); assay: cell_activity; conditions: PAM 5'-GCTG-3'; HEK293T; averaged over AAVS1, VEGFA, EMX1 targets
T1 sequence: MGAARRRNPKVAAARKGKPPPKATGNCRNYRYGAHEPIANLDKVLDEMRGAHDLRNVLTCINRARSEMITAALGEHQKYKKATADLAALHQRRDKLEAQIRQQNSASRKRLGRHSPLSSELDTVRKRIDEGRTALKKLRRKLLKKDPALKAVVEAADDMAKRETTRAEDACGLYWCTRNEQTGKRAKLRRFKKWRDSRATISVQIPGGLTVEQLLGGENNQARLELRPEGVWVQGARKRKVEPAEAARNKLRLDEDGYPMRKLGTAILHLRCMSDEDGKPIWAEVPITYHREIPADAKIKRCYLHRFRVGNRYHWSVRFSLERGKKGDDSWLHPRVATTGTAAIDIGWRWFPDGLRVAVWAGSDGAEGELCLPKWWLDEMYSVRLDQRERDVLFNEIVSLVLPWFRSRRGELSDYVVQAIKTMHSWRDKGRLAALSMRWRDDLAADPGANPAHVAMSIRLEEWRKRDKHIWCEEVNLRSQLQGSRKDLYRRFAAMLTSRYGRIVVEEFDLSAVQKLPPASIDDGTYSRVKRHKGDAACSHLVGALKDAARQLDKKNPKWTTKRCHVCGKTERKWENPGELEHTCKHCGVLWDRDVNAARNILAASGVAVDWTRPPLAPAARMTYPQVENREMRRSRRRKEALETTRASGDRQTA

[2] = tested on: T2, CRISPR nuclease variant S511R S511R (synthetic construct); assay: cell_activity; conditions: PAM 5'-GCTG-3'; HEK293T; averaged over AAVS1, VEGFA, EMX1 targets
T2 sequence: T1 sequence with K78S, R198E, G354R, S511R

Work on “GGUCCCAUCGGAACGGGUUGUGGUUCCGACGGAGGGAUACAUUGGUGGGG / GGAGGGATACATTGGTGGGG / CCCCACCAATGTATCCCTCC [AAVS1 crRNA (Table 5) ; AAVS1 target (Table 5)]” yielded a binding signal (fold indels vs WT) [1] of 4.14 and a binding signal (fold indels vs WT) [2] of 3.71.
